T1: SMT3–Hairless NTCT fusion protein (residues 232–358) (Drosophila melanogaster, UniProt Q02308 232-358)
T1 sequence: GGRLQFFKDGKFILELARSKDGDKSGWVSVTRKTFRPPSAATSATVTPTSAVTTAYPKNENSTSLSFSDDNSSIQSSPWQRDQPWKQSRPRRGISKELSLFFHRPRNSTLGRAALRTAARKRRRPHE

B1: core Su(H) (amino acids 98–523) (domain or fragment)
chain: not shown

Key:
[1] = target: T1, SMT3–Hairless NTCT fusion protein …; test: ITC
[2] = target: B1; test: native gel or EMSA

stoichiometry N [1] | binding result [2] | Binder
0.9 | – | B1
– | binds | GGRLQFFKDGKFILELARSKDGDKSGWVSVTRKTFRPP (domain or fragment) [Hairless NT (amino acids 232–269)]

Source: PMC3164469 (Molecular Biology of the Cell, 2011)
